Series [1] has as its target T1, MmeI (Methylophilus methylotrophus).
T1 chain: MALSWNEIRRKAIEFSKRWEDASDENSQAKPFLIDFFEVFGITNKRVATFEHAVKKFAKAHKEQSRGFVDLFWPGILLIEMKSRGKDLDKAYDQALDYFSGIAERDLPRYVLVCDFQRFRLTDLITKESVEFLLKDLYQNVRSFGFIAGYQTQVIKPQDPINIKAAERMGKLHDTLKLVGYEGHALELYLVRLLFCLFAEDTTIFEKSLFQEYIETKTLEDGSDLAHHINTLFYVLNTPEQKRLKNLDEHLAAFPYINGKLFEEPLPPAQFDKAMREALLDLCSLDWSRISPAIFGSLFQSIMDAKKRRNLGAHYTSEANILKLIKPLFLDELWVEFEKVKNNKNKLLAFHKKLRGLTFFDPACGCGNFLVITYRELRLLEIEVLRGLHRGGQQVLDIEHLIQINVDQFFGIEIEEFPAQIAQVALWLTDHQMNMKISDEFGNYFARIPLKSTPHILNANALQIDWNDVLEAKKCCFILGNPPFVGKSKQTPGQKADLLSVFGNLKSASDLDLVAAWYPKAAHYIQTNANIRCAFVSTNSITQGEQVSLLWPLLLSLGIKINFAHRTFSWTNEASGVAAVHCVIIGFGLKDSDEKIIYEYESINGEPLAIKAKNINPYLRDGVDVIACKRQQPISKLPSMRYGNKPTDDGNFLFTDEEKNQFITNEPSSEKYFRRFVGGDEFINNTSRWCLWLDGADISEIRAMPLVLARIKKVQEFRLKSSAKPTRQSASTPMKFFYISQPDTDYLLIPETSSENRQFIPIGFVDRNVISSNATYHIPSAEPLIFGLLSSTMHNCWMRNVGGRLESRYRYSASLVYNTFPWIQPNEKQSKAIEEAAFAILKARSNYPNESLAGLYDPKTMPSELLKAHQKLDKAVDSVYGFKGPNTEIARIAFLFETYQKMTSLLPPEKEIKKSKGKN
The series is described as follows: methyltransferase activity; 3H-SAM incorporation. Particulars: preparation used with the oligos not specified; label: 5'-FAM both strands.

Series [2] addresses T1, MmeI. The series is described as follows: methyltransferase activity on top strand; 3H-SAM incorporation. Particulars: preparation used with the oligos not specified; label: 5'-FAM both strands.

Our source for the activity values is US20040091911, “Recombinant type II restriction endonucleases, MmeI and related endonucleases and methods for producing the same” (published 2004).

A value given as a limit tells only on which side of the number the result lay.

B1: oligo1+oligo2 unmethylated (dsDNA)
DNA 1: GTTTGAAGACTCCGACGCGATGGCCAGCGATCGGCGCCTCAGCTTTTG
DNA 2: CAAAAGCTGAGGCGCCGATCGCTGGCCATCGCGTCGGAGTCTTCAAAC
In the series with MmeI [1], B1 yielded an activity greater than 10 fold over background.

B2: oligo1+oligo4 bottom methylated (dsDNA)
DNA 1: GTTTGAAGACTCCGACGCGATGGCCAGCGATCGGCGCCTCAGCTTTTG
DNA 2: CAAAAGCTGAGGCGCCGATCGCTGGCCATCGCGTCGGAGTCTTCAAAC
modifications: 6mA in bottom strand at GTCGG(6mA) (position 38)
B2: the activity with MmeI [2] is greater than 10 fold over background.
